Test results reported in the Immune Epitope Database (IEDB).
pIC50, pKd: −log10 of the molar value.

What was measured:
[1] = target: HLA-B*48:01; test: IEDB peptide-MHC binding, purified MHC/competitive/fluorescence; filed as Kd, often an IC50 or EC50 that approximates it; ≥ and ≤ were set here for values at or beyond the usual limits of such assays
[2] = target: HLA-A*01:01; test: IEDB peptide-MHC binding, purified MHC/competitive/fluorescence; ≥ and ≤ were set here for values at or beyond the usual limits of such assays; conditions: source organism: Homo sapiens
[3] = target: HLA-A*02:01; test: as above; conditions: source organism: Homo sapiens
[4] = target: HLA-A*03:01; test: as above; conditions: source organism: Homo sapiens
[5] = target: HLA-A*11:01; test: as above; conditions: source organism: Homo sapiens
[6] = target: HLA-A*24:02; test: as above; conditions: source organism: Homo sapiens
[7] = target: HLA-A*25:01; test: as above; conditions: source organism: Homo sapiens
[8] = target: HLA-A*29:02; test: as above; conditions: source organism: Homo sapiens
[9] = target: HLA-A*31:01; test: as above; conditions: source organism: Homo sapiens
[10] = target: HLA-A*68:02; test: as above; conditions: source organism: Homo sapiens
[11] = target: HLA-B*07:02; test: as above; conditions: source organism: Homo sapiens
[12] = target: HLA-B*08:01; test: as above; conditions: source organism: Homo sapiens
[13] = target: HLA-B*14:02; test: as above; conditions: source organism: Homo sapiens
[14] = target: HLA-B*18:01; test: as above; conditions: source organism: Homo sapiens
[15] = target: HLA-B*35:01; test: as above; conditions: source organism: Homo sapiens
[16] = target: HLA-B*37:01; test: as above; conditions: source organism: Homo sapiens
[17] = target: HLA-B*40:02; test: as above; conditions: source organism: Homo sapiens
[18] = target: HLA-B*44:03; test: as above; conditions: source organism: Homo sapiens
[19] = target: HLA-B*51:01; test: as above; conditions: source organism: Homo sapiens
[20] = target: HLA-B*53:01; test: as above; conditions: source organism: Homo sapiens
[21] = target: HLA-B*58:01; test: as above; conditions: source organism: Homo sapiens
[22] = target: HLA-A*01:01; test: IEDB peptide-MHC binding, purified MHC/direct/fluorescence; filed as Kd, often an IC50 or EC50 that approximates it; ≥ and ≤ were set here for values at or beyond the usual limits of such assays
[23] = target: HLA-A*02:01; test: as above
[24] = target: HLA-A*11:01; test: as above
[25] = target: HLA-A*26:01; test: as above; conditions: source organism: Francisella tularensis subsp. tularensis FSC033
[26] = target: HLA-A*26:03; test: as above; conditions: source organism: Francisella tularensis subsp. tularensis FSC033
[27] = target: HLA-A*31:01; test: as above
[28] = target: HLA-A*69:01; test: as above
[29] = target: HLA-B*07:02; test: as above
[30] = target: HLA-B*08:02; test: as above; conditions: source organism: Francisella tularensis subsp. tularensis FSC033
[31] = target: HLA-B*08:03; test: as above; conditions: source organism: Francisella tularensis subsp. tularensis FSC033
[32] = target: HLA-B*27:05; test: as above
[33] = target: HLA-B*40:01; test: as above
[34] = target: HLA-B*44:02; test: as above; conditions: source organism: Francisella tularensis subsp. holarctica LVS
[35] = target: HLA-B*57:01; test: as above
[36] = target: HLA-B*58:01; test: as above
[37] = target: HLA-B*15:09; test: IEDB peptide-MHC binding, purified MHC/competitive/fluorescence; filed as Kd, often an IC50 or EC50 that approximates it; ≥ and ≤ were set here for values at or beyond the usual limits of such assays
[38] = target: HLA-B*15:17; test: as above; conditions: source organism: Francisella tularensis subsp. tularensis FSC198
[39] = target: HLA-B*39:01; test: as above; conditions: source organism: Francisella tularensis subsp. tularensis FSC198
[40] = target: HLA-A*03:01; test: IEDB peptide-MHC binding, purified MHC/direct/fluorescence; filed as Kd, often an IC50 or EC50 that approximates it; ≥ and ≤ were set here for values at or beyond the usual limits of such assays; conditions: source organism: Giardia lamblia ATCC 50803
[41] = target: HLA-A*30:01; test: as above; conditions: source organism: Giardia lamblia ATCC 50803
[42] = target: HLA-B*15:01; test: as above; conditions: source organism: Giardia lamblia ATCC 50803
[43] = target: HLA-B*15:17; test: as above; conditions: source organism: Giardia lamblia ATCC 50803
[44] = target: HLA-B*18:01; test: as above; conditions: source organism: Giardia lamblia ATCC 50803
[45] = target: HLA-B*46:01; test: as above; conditions: source organism: Giardia lamblia ATCC 50803
[46] = target: HLA-B*48:01; test: as above; conditions: source organism: Giardia lamblia ATCC 50803
[47] = target: HLA-B*51:01; test: as above; conditions: source organism: Giardia lamblia ATCC 50803
[48] = target: HLA-C*03:03; test: as above; conditions: source organism: Giardia lamblia ATCC 50803
[49] = source organism: Francisella tularensis subsp. holarctica LVS
[50] = source organism: Francisella tularensis subsp. tularensis FSC198
[51] = source organism: Giardia lamblia ATCC 50803

Sequence | pIC50 [2] | pIC50 [3] | pIC50 [4] | pIC50 [5] | pIC50 [6] | pIC50 [7] | pIC50 [8] | pIC50 [9] | pIC50 [10] | pIC50 [11] | pIC50 [12] | pIC50 [13] | pIC50 [14] | pIC50 [15] | pIC50 [16] | pIC50 [17] | pIC50 [18] | pIC50 [19] | pIC50 [20] | pIC50 [21] | other results
WQLSGVVPL | – | – | – | – | – | – | – | – | – | – | – | – | – | – | – | – | – | – | – | – | pKd ([1]; source organism: Toxoplasma gondii RH): 7.52
ELFARSSDPR | ≤ 4.70 | ≤ 4.70 | ≤ 4.70 | ≤ 4.70 | ≤ 4.70 | ≤ 4.70 | ≤ 4.70 | 4.81 | 5.25 | ≤ 4.70 | ≤ 4.70 | ≤ 4.70 | ≤ 4.70 | ≤ 4.70 | ≤ 4.70 | ≤ 4.70 | ≤ 4.70 | ≤ 4.70 | ≤ 4.70 | ≤ 4.70 | –
RQSSGSSSSGF | ≤ 4.70 | ≤ 4.70 | ≤ 4.70 | ≤ 4.70 | ≤ 4.70 | ≤ 4.70 | ≤ 4.70 | ≤ 4.70 | ≤ 4.70 | ≤ 4.70 | ≤ 4.70 | ≤ 4.70 | ≤ 4.70 | ≤ 4.70 | 6.50 | 5.69 | ≤ 4.70 | ≤ 4.70 | ≤ 4.70 | ≤ 4.70 | –
REIGDISYL | – | – | – | – | – | – | – | – | – | – | – | – | – | – | – | – | – | – | – | – | pKd [22, 49]: ≤ 4.70; pKd [23, 49]: ≤ 4.70; pKd [24, 49]: ≤ 4.70; pKd [25]: ≤ 4.70; pKd [26]: ≤ 4.70; pKd [27, 49]: ≤ 4.70; pKd [28, 49]: ≤ 4.70; pKd [29, 49]: ≤ 4.70; pKd [30]: ≤ 4.70; pKd [31]: ≤ 4.70; pKd [32, 49]: ≤ 4.70; pKd [33, 49]: ≥ 9.00; pKd [34]: ≤ 4.70; pKd [35, 49]: ≤ 4.70; pKd [36, 49]: ≤ 4.70; pKd [37, 50]: 5.70; pKd [38]: ≤ 4.70; pKd [39]: 6.51; pKd [1, 50]: ≤ 4.70
LVTMGTGTFGR | ≤ 4.70 | ≤ 4.70 | ≤ 4.70 | 6.41 | ≤ 4.70 | ≤ 4.70 | ≤ 4.70 | ≤ 4.70 | ≤ 4.70 | 4.86 | ≤ 4.70 | ≤ 4.70 | ≤ 4.70 | 6.01 | ≤ 4.70 | ≤ 4.70 | ≤ 4.70 | ≤ 4.70 | ≤ 4.70 | ≤ 4.70 | –
VAAKGAPAL | – | – | – | – | – | – | – | – | – | – | – | – | – | – | – | – | – | – | – | – | pKd [22, 51]: ≤ 4.70; pKd [23, 51]: ≤ 4.70; pKd [40]: ≤ 4.70; pKd [24, 51]: ≤ 4.70; pKd [41]: ≤ 4.70; pKd [27, 51]: ≤ 4.70; pKd [28, 51]: 7.17; pKd [29, 51]: 6.55; pKd [42]: ≤ 4.70; pKd [43]: 8.15; pKd [44]: ≤ 4.70; pKd [32, 51]: ≤ 4.70; pKd [33, 51]: ≤ 4.70; pKd [45]: ≤ 4.70; pKd [46]: 5.25; pKd [47]: ≤ 4.70; pKd [35, 51]: ≤ 4.70; pKd [36, 51]: 6.02; pKd [48]: 8.52; pKd [37, 51]: ≤ 4.70
